Laboratory results from the supplement of paper PMC9170038.

System: MS2 coat protein
Experiment: apparent KD of MS2 coat protein; designed switch direction (-1 OFF switch, 1 ON switch): 1; higher = weaker reporter binding
Outline: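 Three titration conditions were used: no input, 200 uM small-molecule ligand, and an oligonucleotide input. In each, SNAP-549-labelled MS2 coat protein was raised from 0.7 or 1.5 nM, doubling, to 3 µM over designed RNA switches transcribed on Illumina chips by stalled E. coli RNA polymerase. Curve fits of normalised cluster fluorescence gave values whose per-design median over clusters is the apparent KD.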

[1] = Eterna round: R95, input ligand: FMN 200 uM
[2] = Eterna round: R95, input ligand: microRNA oligo, concentration not stated
[3] = Eterna round: R95, input ligand: none
[4] = input ligand: microRNA oligo, concentration not stated

| Sequence | apparent KD of MS2 coat protein [1] | apparent KD of MS2 coat protein [2] | apparent KD of MS2 coat protein [3] | apparent KD of MS2 coat protein (input ligand: FMN 200 uM) | apparent KD of MS2 coat protein [4] | apparent KD of MS2 coat protein (input ligand: none) |
| --- | --- | --- | --- | --- | --- | --- |
| UGGUAACAUGAGGAUCACCCAUGUCAAAUGAAUCUAGGAUAUGGGAAAGGAGAAGAGAAACCAGAAGGAGAGGUUG [Altered State 1-14 - Jieux - Same State 1] (puzzle: Same State 1) | 0.179 µM | 0.0631 µM | 0.107 µM |  |  |  |
| AUUUUUGAUGCAGGAUAUGAUUAACAUGAGGAUCACCCAUGUGGUGUUGUGAGUAAGGAGAGUGAUCAGAAGGGCAUUUUUUUU [JMF's solution 93] (Eterna round: R96, puzzle: Same State NG 2) |  |  |  | 0.81 µM | 0.269 µM | 0.365 µM |
| GACAAUCUAUCUGAGGAUAUCAUGAUAAUAACAUGAGGAUCACCCAUGUGCAGGAAAACUGCAUAUGAGAAGGCAGAUAGAUUGA [Mat - Same State 2 - Mod - D14] (puzzle: Same State 2) | 0.0342 µM | 0.0623 µM | 0.294 µM |  |  |  |
| AGAUCAUGACGAGGAUAUCCGACAUGAGGAUCACCCAUGUAUGUCGGAGGACGGAAACGUCCAAAGGAGAAGGCGUCGUGGUCA [Mat - Same State NG 2 - JL mod - D37] (Eterna round: R96, puzzle: Same State NG 2) |  |  |  | 0.0177 µM | 0.0724 µM | 0.0853 µM |
| GUUACAUGAGGAUCACCCAUGUAUGUGUGGGAGUAAGUGUCUUAGGAUAUCUAUCAUUGAAUUUAAGAGAAGGAAGAUUGUUGU [JMF's solution 92] (Eterna round: R96, puzzle: Same State NG 3) |  |  |  |  | 0.0813 µM |  |
| AGCGAACAGUCCUCAAAGGCAACAUGAGGAUCACCCAUGUCAUAGGAUAUGCUAAAAGCUCAGUAGCAGAAGGAUGGAGGACUG [Edatusbe] (Eterna round: R96, puzzle: Same State NG 3) |  |  |  | 0.0195 µM | 0.0281 µM | 0.0235 µM |
| UGGCUCAGACGAGGAUAUACGUGGUCACAUGAGGAUCACCCAUGUCUCGAGCUUCGGCUCGAGGCGUAGAAGGUGUCUGAGCCU [SSNG2/6-C3] (Eterna round: R96, puzzle: Same State NG 2) |  |  |  | 0.237 µM | 0.363 µM | 0.662 µM |
| GUACUACAUGAGGAUCACCCAUGUACAAAGGUACGAGGAUAUGCAUGUACGAAAGUAUAUGCAGAAGGCGUAGUAC [Pin2Pin #2] (puzzle: Same State 1) |  | 0.0233 µM |  |  |  |  |
| UUAAUUUAUUGAGGAUAUUAUGUCGACUGAGUUGACAUGAGGAUCACCCAUGUGAGAAGUGGUAUUAAGAAGGCAAUAUUCAUA [JR_SSNG2_Sub087] (Eterna round: R96, puzzle: Same State NG 2) |  |  |  | 0.0398 µM | 0.118 µM | 0.115 µM |
| UAGUGUUUGCGAGGAUAUCGUUUGUUGAAGUUACGAGAAGGCGCUCUAAUUACAUGAGGAUCACCCAUGUCUGUGAUGCAUGAU [JR_SSNG1_Sub070] (Eterna round: R96, puzzle: Same State NG 1) |  |  |  | 0.0652 µM | 0.0563 µM | 0.07 µM |
| AUUAUUAAUGCAGGAUAUGAUUAACAUGAGGAUCACCCAUGUGGUGUUGUGAGUAAGGAGAGUGAUCAGAAGGGCAUUUUUUUG [JMF's solution 19] (Eterna round: R96, puzzle: Same State NG 2) |  |  |  | 0.42 µM | 0.423 µM | 0.452 µM |
| GCUAGGAAAGAAGCCAACAUGAGGAUCACCCAUGUAUGUUGGUAGGAUAUCGUAUGCAAAGCAUACGAGAAGGGCUAACCUAGC [Mat - Same State NG 3 - JL Mod - D74] (Eterna round: R96, puzzle: Same State NG 3) |  |  |  | 0.127 µM | 0.127 µM | 0.153 µM |
| CUGUGUUGCGGGCAGGAUAUGUACUUGAGUACAUGAGGAUCACCCAUGUGCGGGUGUUUCACCCGACAGAAGGGCCUAUCGCGAC [JL-ss2-3.24 ViennaUCT mod] (puzzle: Same State 2) | 0.14 µM | 0.395 µM | 0.329 µM |  |  |  |
| UAGACAAGCUUUAUGUUCUUCCUAUUCCAACAUGAGGAUCACCCAUGUAGUCUGUCGAUUGUGAGUGUAGUUGAGAU [JR_SHM208A_Sub026] (puzzle: Sensor for hsa-mir-208a) | 0.0578 µM | 0.052 µM | 0.0619 µM |  |  |  |
| UUAUCUCUUACAUGAGGAUCACCCAUGUUUUUAUGUCUUAGACAGGAUAUAGUAGUCUCGUUUUACUAGAAGGGUCUUUUUAUU [JR_SSNG3_Sub019] (Eterna round: R96, puzzle: Same State NG 3) |  |  |  | 0.0289 µM | 0.0398 µM | 0.0514 µM |
| GGAGCCGGUACUGAGGAUAUUCAUUUUAAAACAUGAGGAUCACCCAUGUAGGCCAGAAGGCCUUGGGAGAAGGCAGAUCGGCUCC [Biseusra - 6] (puzzle: Same State 2) | 0.019 µM | 0.18 µM | 0.281 µM |  |  |  |

| Sequence | apparent KD of MS2 coat protein [1] | apparent KD of MS2 coat protein [2] | apparent KD of MS2 coat protein [3] | apparent KD of MS2 coat protein (input ligand: FMN 200 uM) | apparent KD of MS2 coat protein [4] | apparent KD of MS2 coat protein (input ligand: none) |
| --- | --- | --- | --- | --- | --- | --- |
| GGUAGGUUACUACCAACACAUGAGGAUCACCCAUGUUAGUGGGAGGAUAUGGUACCUAUUUGGUACCAGAAGGCCUUGUUAAUU [Fiskers NG3ss - 14] (Eterna round: R96, puzzle: Same State NG 3) |  |  |  | 0.0437 µM | 0.0628 µM | 0.0876 µM |
| GCUAGUAUAAUUGCUAACAUGAGGAUCACCCAUGUAUGUUGGCAGGAUAUCGUUUGCAAAGCAAACGAGAAGGGCUAAACUAGC [Mat - Same State NG 3 - JL Mod - D14] (Eterna round: R96, puzzle: Same State NG 3) |  |  |  | 0.0363 µM | 0.103 µM | 0.104 µM |
| UUACUCAUGUAAGGAUAUGCAGCCGUUUCGGCUGCAGAAGGUACUAUAAUACAUGAGGAUCACCCAUGUCUCUAUUAUUUAGUG [salish99_SSNG1_r04_922] (Eterna round: R96, puzzle: Same State NG 1) |  |  |  |  | 0.0399 µM |  |
| UAUUUAAUCAUAGGAUAUAGUGUGAAAUUUGGACUAGAAGGAUGUAACAUGAGGAUCACCCAUGUGGUAAGUGGGACACAUUGA [JR_SSNG1_Sub097] (Eterna round: R96, puzzle: Same State NG 1) |  |  |  |  | 0.0867 µM |  |
| AAAAUGGGAUUUUACAUGAGGAUCACCCAUGUGGGUAUCACUGAGGAUAUGAGGAUCUUGAAAAAUCAGAAGGCAGAAUUUCAA [AK SSNG3-V2-21] (Eterna round: R96, puzzle: Same State NG 3) |  |  |  | 0.41 µM | 0.288 µM | 0.329 µM |
| UUCCUACAUGAGGAUCACCCAUGUGACGCCUCGAUAGGAUAUGCGUGUGCCUUGGCGCAUGCAGAAGGGUUGUAGC [JL Aveso mod 9] (puzzle: Same State 1) | 0.0392 µM | 0.0348 µM | 0.0375 µM |  |  |  |
| AUCAAAACAAGUUGCAGUGUUCGUCUUUCACAUGAGGAUCACCCAUGUAAUAGCCCAGUGGAAGCGCUCAGGCCACC [Usbi] (puzzle: Sensor for hsa-mir-208a) | 0.225 µM | 0.0577 µM | 0.21 µM |  |  |  |
| CUCUUACAUGAGGAUCACCCAUGUGUUGUCGUGGGAGGAUAUCCUGGUUCGGUGGCGUUGGGAGAAGGCCUAUGUC [× ×•×ª×• ×ž×“×™× ×” × ×—×ª-18] (puzzle: Same State 1) |  | 0.378 µM |  |  |  |  |
| CUCAAACAUGAGGAUCACCCAUGUGUUGUCAUGGGAGGAUAUCUAAGUUCGUUGUAGUCGGGAGAAGGCCUAUGUC [× ×•×ª×• ×ž×“×™× ×” × ×—×ª-11] (puzzle: Same State 1) |  | 0.182 µM |  |  |  |  |
| AUAAAACAUGAGGAUCACCCAUGUCAACAAAGUCGAGGAUAUGGGCAAAGAAAAUAAGAACCAGAAGGCGAAUAAU [salish99_ss1_r3_056] (Eterna round: R96, puzzle: Same State 1) |  |  |  |  | 0.245 µM |  |
| UAAAGAUCGCGAGGAUAUCGCGAGGAUCACCCGUGAGAAGGCGCAGAGCCGAGGAUCACCCGGCUGAUCCUGAGGAGGAGGUAA (Eterna round: R96, puzzle: Same State NG 1) |  |  |  | 0.249 µM | 0.41 µM | 0.556 µM |
| CCGGUAAAUGGAGGAUAUGGAGCCUUAUUGGCUCCAGAAGGCUAACAUGAGGAUCACCCAUGUAUACCGGCGGUCAAUAGACCG [Eli NG1ss - 64] (Eterna round: R96, puzzle: Same State NG 1) |  |  |  | 0.011 µM | 0.0163 µM | 0.0218 µM |
| GCUACCAAAGAAGCCUACAUGAGGAUCACCCAUGUAUGUAGGCAGGAUAUCGAUUGCAAAGCGAUCGAGAAGGGCUUAGGUAGC [Mat - Same State NG 3 - JL Mod - D92] (Eterna round: R96, puzzle: Same State NG 3) |  |  |  | 0.0689 µM | 0.116 µM | 0.152 µM |
| GGUAAACAUGAGGAUCACCCAUGUAAUAUAAUGGGAGGAUAUCUGAAUUAAUUAAAUUAAGGAGAAGGCCUAAUGG [Mat - Same State 1 - Mod of Eli - D49] (puzzle: Same State 1) | 0.248 µM | 0.245 µM | 0.321 µM |  |  |  |
| AUGAAGAAUUAAGGAUAUUGAAUACAUAUGUUUAACAUGAGGAUCACCCAUGUGGGUUGCGGUAUCGAGAAGGUAAAUUAAUAG [Mat - same State NG 2 - JL mod - D90] (Eterna round: R96, puzzle: Same State NG 2) |  |  |  | 0.142 µM | 0.156 µM | 0.143 µM |
| GGGUAGGAGCUACAGGAUAUAUAGAAGUUGACAUGAGGAUCACCCAUGUAAGGGUACGGAGGCGGAUAGAAGGGUAUGGGAGGUG [JR_SS2_Sub033] (puzzle: Same State 2) | 0.0555 µM | 0.0542 µM | 0.0649 µM |  |  |  |
